The chains are these.
B1: N-terminal Rad9 CAD region (yeast two-hybrid fusion) [S. cerevisiae] / Chk1 (yeast two-hybrid fusion) [S. cerevisiae] (parent)
chain 1: MSGQLVQWKSSPDRVTQSAIKEALHSPLADGDMNEMNVPVDPLENKVNSTNIIEGSPKANPNPVKFMNTSEIFQKSLGLLDESPRHDDELNIEVGDNDRPNANILHNERTPDLDRIANFFKSNRTPGKENLLTKYQSSDLEDTPLMLRKKMTFQTPTDPLEQKTFKKLKSDTGFCYYGEQNDGEENASLEVTEADATFVQMAERSADNYDCALEGIVTPKRYKDELSKSGG
chain 2: MSLSQVSPLPHIKDVVLGDTVGQGAFACVKNAHLQMDPSIILAVKFIHVPTCKKMGLSDKDITKEVVLQSKCSKHPNVLRLIDCNVSKEYMWIILEMADGGDLFDKIEPDVGVDSDVAQFYFQQLVSAINYLHVECGVAHRDIKPENILLDKNGNLKLADFGLASQFRRKDGTLRVSMDQRGSPPYMAPEVLYSEEGYYADRTDIWSIGILLFVLLTGQTPWELPSLENEDFVFFIENDGNLNWGPWSKIEFTHLNLLRKILQPDPNKRVTLKALKLHPWVLRRASFSGDDGLCNDPELLAKKLFSHLKVSLSNENYLKFTQDTNSNNRYISTQPIGNELAELEHDSMHFQTVSNTQRAFTSYDSNTNYNSGTGMTQEAKWTQFISYDIAALQFHSDENDCNELVKRHLQFNPNKLTKFYTLQPMDVLLPILEKALNLSQIRVKPDLFANFERLCELLGYDNVFPLIINIKTKSNGGYQLCGSISIIKIEEELKSVGFERKTGDPLEWRRLFKKISTICRDIILIPN

Response data for ten variants are collected here from paper PMC3616908.

In this assay the parent is B1. Kind of assay: yeast two-hybrid (β-galactosidase activity). As to conditions: with Chk1 (yeast two-hybrid fusion) [S. cerevisiae]; parent: 1; read off a plot.
As to chain 1 S26A S56A S83A T110A T125A T143A T155A T218A, the response came out at 0.22 AU. In the case of chain 1 S11A S26A S56A S83A T125A T143A T155A T218A it was 0.2 AU; in that of chain 1 S11A S26A S56A S83A T110A T125A T143A T155A, 0.15 AU; in that of chain 1 S11A S26A S56A S83A T110A T125A T155A T218A, 0.8 AU. Turning to chain 1 S11A S56A S83A T110A T125A T143A T155A T218A, the response worked out at 0.14 AU. In the case of chain 1 S11A S26A S56A T110A T125A T143A T155A T218A it was 0.18 AU; in that of chain 1 S11A S26A S56A S83A T110A T125A T143A T155A T218A, 0.07 AU; in that of chain 1 S11A S26A S56A S83A T110A T125A T143A T218A, 0.28 AU. The same measure for chain 1 S11A S26A S56A S83A T110A T143A T155A T218A: 0.59 AU; for chain 1 S11A S26A S83A T110A T125A T143A T155A T218A: 0.18 AU.
